Data on 4 molecules can be found in patent publication US20200317768A1 (published 2020).

What all share (assay): SPR (BIACORE); KD of SG1 / KD of variant;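 further: relative to parent M103205H795-SG1 carrying the SG1 human heavy chain constant region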
Background: SPR reads the build-up and loss of mass on a sensor chip optically.

The target of experiment [1] is T1, cynomolgus monkey FcγRIIa1 extracellular domain with C-terminal His-tag (cynomolgus monkey).
T1 construct: also called cyno FcgRIIa1; cynoFcγRIIa1
T1 chain: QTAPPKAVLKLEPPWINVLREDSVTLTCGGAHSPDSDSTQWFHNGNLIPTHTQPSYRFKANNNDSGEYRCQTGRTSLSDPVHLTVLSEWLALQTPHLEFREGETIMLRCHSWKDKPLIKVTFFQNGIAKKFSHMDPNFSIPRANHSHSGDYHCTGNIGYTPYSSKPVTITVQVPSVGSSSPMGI

Experiment [2] deals with T2, cynomolgus monkey FcγRIIa2 extracellular domain with C-terminal His-tag (cynomolgus monkey).
T2 construct: also called cyno FcgRIIa2; cynoFcγRIIa2
T2 chain: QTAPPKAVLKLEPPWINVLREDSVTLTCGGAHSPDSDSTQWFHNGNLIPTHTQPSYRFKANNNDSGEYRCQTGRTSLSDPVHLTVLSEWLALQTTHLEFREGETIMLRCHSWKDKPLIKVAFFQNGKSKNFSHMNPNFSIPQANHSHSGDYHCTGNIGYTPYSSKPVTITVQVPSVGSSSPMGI

Experiment [3] deals with T3, cynomolgus monkey FcγRIIa3 extracellular domain with C-terminal His-tag (cynomolgus monkey).
T3 construct: also called cyno FcgRIIa3; cynoFcγRIIa3
T3 chain: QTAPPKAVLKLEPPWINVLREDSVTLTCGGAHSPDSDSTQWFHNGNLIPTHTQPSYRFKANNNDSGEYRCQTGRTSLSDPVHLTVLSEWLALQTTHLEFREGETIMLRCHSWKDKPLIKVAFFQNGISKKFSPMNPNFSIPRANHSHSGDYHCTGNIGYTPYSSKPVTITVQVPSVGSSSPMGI

In experiment [4] the target is T4, cynomolgus monkey FcγRIIb extracellular domain with C-terminal His-tag (cynomolgus monkey).
T4 construct: also called cyno FcgRIIb; cynoFcγRIIb
T4 chain: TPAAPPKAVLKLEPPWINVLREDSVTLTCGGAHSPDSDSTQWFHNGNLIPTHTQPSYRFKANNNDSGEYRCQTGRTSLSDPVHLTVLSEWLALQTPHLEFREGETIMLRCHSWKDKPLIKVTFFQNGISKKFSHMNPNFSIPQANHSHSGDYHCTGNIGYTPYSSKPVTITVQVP

In experiment [5] the target is T5, human FcγRIIaH extracellular domain with C-terminal His-tag (human, UniProt P12318 34-217).
T5 construct: also called human FcgRIIaH; FcγRIIa (type H)
T5 sequence: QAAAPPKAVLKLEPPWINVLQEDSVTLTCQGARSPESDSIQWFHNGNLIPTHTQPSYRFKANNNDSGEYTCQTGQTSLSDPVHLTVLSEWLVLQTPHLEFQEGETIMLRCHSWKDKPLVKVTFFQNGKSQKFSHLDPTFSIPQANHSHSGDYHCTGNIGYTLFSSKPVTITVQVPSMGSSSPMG

In experiment [6] the target is T6, human FcγRIIaR extracellular domain with C-terminal His-tag (human, UniProt P12318 34-217).
T6 construct: also called human FcgRIIaR; FcγRIIa (type R)
T6 chain: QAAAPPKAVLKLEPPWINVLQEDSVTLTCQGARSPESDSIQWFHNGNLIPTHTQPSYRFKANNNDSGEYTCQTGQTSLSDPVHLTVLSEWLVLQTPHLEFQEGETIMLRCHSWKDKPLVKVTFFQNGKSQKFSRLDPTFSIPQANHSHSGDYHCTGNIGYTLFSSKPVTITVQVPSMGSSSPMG

For experiment [7], the target named is T7, human FcγRIIb extracellular domain with C-terminal His-tag (human, UniProt P31994 43-217).
T7 construct: also called human FcgRIIb
T7 sequence: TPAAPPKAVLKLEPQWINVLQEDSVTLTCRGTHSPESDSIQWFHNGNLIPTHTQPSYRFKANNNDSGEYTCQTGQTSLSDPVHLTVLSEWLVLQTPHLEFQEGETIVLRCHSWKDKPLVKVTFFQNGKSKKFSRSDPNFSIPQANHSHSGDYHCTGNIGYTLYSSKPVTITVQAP

Experiment [8] concerns the target T8, human FcγRIIIaV extracellular domain with C-terminal His-tag (human, UniProt P08637 17-208).
T8 construct: also called human FcgRIIIaV

T8 sequence (P08637 17-208 F176V): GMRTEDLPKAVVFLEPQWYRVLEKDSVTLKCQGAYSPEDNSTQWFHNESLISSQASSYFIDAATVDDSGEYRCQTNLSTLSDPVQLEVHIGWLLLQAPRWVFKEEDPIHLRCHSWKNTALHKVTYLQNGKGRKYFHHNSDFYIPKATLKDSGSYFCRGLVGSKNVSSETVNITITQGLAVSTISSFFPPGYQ

B1: M103205H795-MY341/M103202L889-SK1 (antibody, human IgG1, kappa)
heavy: QVTLKESGPVLVKPTETLTLTCTVSGIDLSHDDISWVRQAPGKGLEWVGIISYAGSTYYASWAKGRLTISKDTSKNQVVLTMTNMDPVDTATYYCARGVPAYSHGGDLWGQGTLVTVSSASTKGPSVFPLAPSSKSTSGGTAALGCLVKDYFPEPVTVSWNSGALTSGVHTFPAVLQSSGLYSLSSVVTVPSSSLGTQTYICNVNHKPSNTKVDKKVEPKSCDKTHTCPPCPAPELLLGPSVFLFPPKPKDTLMISRTPEVTCVVVDVSDEDPEVKFNWYVDGVEVHNAKTKPREELYNSTYRVVSVLTVLHQDWLNGKEYKCKVSNTALPKPIEKTISKAKGQPREPQVYTLPPSREEMTKNQVSLTCLVKGFYPSDIAVEWESNGQPENNYKTTPKVLDSDGSFFLYSKLTVDKSRWQQGNVFSCSVMHEALHNHYTQKSLSLSP
light: DIVMTQSPATLSLSPGERATLSCTSSQSVYHANWLSWFQQKPGQPPKLLIYWASTLAYGVPSRFSGSGSGTDFTLTISSLQPEDAATYYCAGGYGGGRYAFGQGTKVEIKRTVAAPSVFIFPPSDEQLKSGTASVVCLLNNFYPREAKVQWKVDNALQSGNSQESVTEQDSKDSTYSLSSTLTLSKADYEKHKVYACEVTHQGLSSPVTKSFNRGEC
notes: Substitutions introduced into M103205H795-SG1, expressed with M103202L889-SK1 as light chain; EU numbering
B1: the “KD fold (SG1 = 1)” value in experiment [1] turned out to be 1.2 fold; in experiment [2], 1.8 fold; in experiment [3], 1.9 fold; in experiment [4] it was 3 fold; in experiment [5] it was 2.7 fold; in experiment [6], 2.6 fold. The “KD fold (SG1 = 1)” value in experiment [7] worked out at 2.6 fold; in experiment [8] it was 0.12 fold.

B2: M103205H795-MY342/M103202L889-SK1 (antibody, human IgG1, kappa)
heavy: QVTLKESGPVLVKPTETLTLTCTVSGIDLSHDDISWVRQAPGKGLEWVGIISYAGSTYYASWAKGRLTISKDTSKNQVVLTMTNMDPVDTATYYCARGVPAYSHGGDLWGQGTLVTVSSASTKGPSVFPLAPSSKSTSGGTAALGCLVKDYFPEPVTVSWNSGALTSGVHTFPAVLQSSGLYSLSSVVTVPSSSLGTQTYICNVNHKPSNTKVDKKVEPKSCDKTHTCPPCPAPELLLGPSVFLFPPKPKDTLMISRTPEVTCVVVDVSDEDPEVKFNWYVDGVEVHNAKTKPREELYNSTYRVVSVLTVLHQDWLNGKEYKCKVSNKALPKPIEKTISKAKGQPREPQVYTLPPSREEMTKNQVSLTCLVKGFYPSDIAVEWESNGQPENNYKTTPMVLDSDGSFFLYSKLTVDKSRWQQGNVFSCSVMHEALHNHYTQKSLSLSP
light: DIVMTQSPATLSLSPGERATLSCTSSQSVYHANWLSWFQQKPGQPPKLLIYWASTLAYGVPSRFSGSGSGTDFTLTISSLQPEDAATYYCAGGYGGGRYAFGQGTKVEIKRTVAAPSVFIFPPSDEQLKSGTASVVCLLNNFYPREAKVQWKVDNALQSGNSQESVTEQDSKDSTYSLSSTLTLSKADYEKHKVYACEVTHQGLSSPVTKSFNRGEC
notes: as for B1
Take B2: the “KD fold (SG1 = 1)” value in experiment [1] worked out at 0.6 fold; in experiment [2] it was 0.6 fold; in experiment [3] it was 0.3 fold; in experiment [4] it was 1.4 fold; in experiment [5] it was 1.9 fold; in experiment [6], 1.1 fold. The “KD fold (SG1 = 1)” value came to 1.2 fold in experiment [7] and 0.03 fold in experiment [8].

B3: M103205H795-MY380/M103202L889-SK1 (antibody, human IgG1, kappa)
heavy: QVTLKESGPVLVKPTETLTLTCTVSGIDLSHDDISWVRQAPGKGLEWVGIISYAGSTYYASWAKGRLTISKDTSKNQVVLTMTNMDPVDTATYYCARGVPAYSHGGDLWGQGTLVTVSSASTKGPSVFPLAPSSKSTSGGTAALGCLVKDYFPEPVTVSWNSGALTSGVHTFPAVLQSSGLYSLSSVVTVPSSSLGTQTYICNVNHKPSNTKVDKKVEPKSCDKTHTCPPCPAPELLNGPSVFLFPPKPKDTLMISRTPEVTCVVVDVSEEDPEVKFNWYVDGVEVHNAKTKPREEQYNSTYRVVSVLTVLHQDWLNGKEYKCKVSNKALPKPIEKTISKAKGQPREPQVYTLPPSREEMTKNQVSLTCLVKGFYPSDIAVEWESNGQPENNYKTTPKVLDSDGSFFLYSKLTVDKSRWQQGNVFSCSVMHEALHNHYTQKSLSLSP
light: DIVMTQSPATLSLSPGERATLSCTSSQSVYHANWLSWFQQKPGQPPKLLIYWASTLAYGVPSRFSGSGSGTDFTLTISSLQPEDAATYYCAGGYGGGRYAFGQGTKVEIKRTVAAPSVFIFPPSDEQLKSGTASVVCLLNNFYPREAKVQWKVDNALQSGNSQESVTEQDSKDSTYSLSSTLTLSKADYEKHKVYACEVTHQGLSSPVTKSFNRGEC
notes: as for B1
As to B3, the “KD fold (SG1 = 1)” value worked out at 3.4 fold in experiment [1]; 5.1 fold in experiment [2]; 3.2 fold in experiment [3]; 6.2 fold in experiment [4]; 1.5 fold in experiment [5]; 1.3 fold in experiment [6]. For the same molecule, the “KD fold (SG1 = 1)” value was 9.6 fold in experiment [7] and 0.08 fold in experiment [8].

B4: M103205H795-MY386/M103202L889-SK1 (antibody, human IgG1, kappa)
heavy: QVTLKESGPVLVKPTETLTLTCTVSGIDLSHDDISWVRQAPGKGLEWVGIISYAGSTYYASWAKGRLTISKDTSKNQVVLTMTNMDPVDTATYYCARGVPAYSHGGDLWGQGTLVTVSSASTKGPSVFPLAPSSKSTSGGTAALGCLVKDYFPEPVTVSWNSGALTSGVHTFPAVLQSSGLYSLSSVVTVPSSSLGTQTYICNVNHKPSNTKVDKKVEPKSCDKTHTCPPCPAPELLLGPSVFLFPPKPKDTLMISRTPEVTCVVVDVSDEDPEVKFNWYVDGVEVHNAKTKPREELYNSTYRVVSVLTVLHQDWLNGKEYKCKVSNTALPKPIEKTISKAKGQPREPQVYTLPPSREEMTKNQVSLTCLVKGFYPSDIAVEWESNGQPENNYKTTPPVLDSDGSFFLYSKLTVDKSRWQQGNVFSCSVMHEALHNHYTQKSLSLSP
light: DIVMTQSPATLSLSPGERATLSCTSSQSVYHANWLSWFQQKPGQPPKLLIYWASTLAYGVPSRFSGSGSGTDFTLTISSLQPEDAATYYCAGGYGGGRYAFGQGTKVEIKRTVAAPSVFIFPPSDEQLKSGTASVVCLLNNFYPREAKVQWKVDNALQSGNSQESVTEQDSKDSTYSLSSTLTLSKADYEKHKVYACEVTHQGLSSPVTKSFNRGEC
notes: as for B1
As to B4, the “KD fold (SG1 = 1)” value in experiment [1] worked out at 0.6 fold; in experiment [2] it was 0.9 fold; in experiment [3], 1.1 fold; in experiment [4] it was 1.1 fold; in experiment [5] it was 0.9 fold; in experiment [6], 0.6 fold. For the same molecule, the figures for the “KD fold (SG1 = 1)” value in experiment [7] and in experiment [8] were 1 fold and 0.03 fold, respectively.
